One protein from article PMC4655364, “HdeB chaperone activity is coupled to its intrinsic dynamic properties” (Scientific Reports, 2015) can be followed below.

The series concerns the molecule itself. The experiment in a line: NMR backbone 15N relaxation (R2/R1, model-free analysis); pH 7.0, 5.0, 4.5 and 4.0; 25 °C, 800 MHz; 50 mM sodium phosphate, 45 mM citric acid.

A word on the stoichiometry N: it is the number of molecules, sites or subunits per partner or assembly.

B1: E. coli HdeB (natural protein, UniProt P0AET2 30-108, looked up)
chain: ANESAKDMTCQEFIDLNPKAMTPVAWWMLHEETVYKGGDTVTLNETDLTQIPKVIEYCKKNPQKNLYTFKNQASNDLPN
notes: HdeB, periplasmic acid-resistant chaperone of E. coli; 79 residues; numbers count on: the mature protein, with the signal peptide excluded; Expressed from pET-28a(+); It speaks of 79 residues and numbers them on the mature protein; Samples were 15N- or 13C/15N-labelled; Each monomer has a Cys10-Cys58 disulfide bridge; also called HdeB dimer; HdeB homo-dimer; source: E. coli BL21(DE3)-T1R, …
With B1, the “stoichiometry N” value was found to be 2.
